# Measurements reported in article PMC6713926, “Structural Basis for Properdin Oligomerization and Convertase Stimulation in the Human Complement System” (Frontiers in Immunology, 2019).
# B1: FPht R353A (complex)
# chain 1: DPVLCFTQYEESSGKCKGLLGGGVSVEDCCLNTAFAYQKRSGGLCQPCRSPRWSLWSTWAPCSVTCSEGSQLRYRRCVGWNGQCSGKVAPGTLEWQLQACEDQQCCPEMGGWSGWGPWEPCSVTCSKGTRTRRRACNHPAPKCGGHCPGQAQESEACDTQQVCPTHGAWATWGPWTPCSASCHGGPHEPKETRSRKCSAPEPSQKPPGKPCPGLAYEQRRCTGLPPCP
# chain 2: VAGGWGPWGPVSPCPVTCGLGQTMEQRTCNHPVPQHGGPFCAGDATRTHICNTAVPCPVDGEWDSWGEWSPCIRRNMKSISCQEIPGQQSRGRTCRGAKFDGHRCAGQQQDIRHCYSIQHCPLKGSWSEWSTWGLCMPPCGPNPTRARQRLCTPLLPKYPPTVSMVEGQGEKNVTFWGRPLPRCEELQGQKLVVEEKRPCLHVPACKDPEEEEL
# Target: T1, Biotinylated C3b (human, UniProt P01024 23-667; P01024 749-1663, biotin (Maleimide-PEG2-Biotin))
# T1 construct: complement C3, human, beta chain; complement C3, human, alpha' chain of C3b; also called biotin-C3b; immobilized C3b; source: made from plasma C3 by trypsin cleavage in the presence of Maleimide-PEG2-Biotin, purified by cation exchange
# Assay: BLI; biotinylated C3b on streptavidin sensors; FPht variants at 100 to 1.56 μg/mL, 60 s steps; 30°C; 20 mM MES pH 6.0, 100 mM NaCl, 0.05% Tween, 1 mg/mL BSA; steady state 1:1 fit (for WT also kinetic analysis)
# Details: both partners purified
# T1 sequence (P01024 23-667, chain 1 of 2): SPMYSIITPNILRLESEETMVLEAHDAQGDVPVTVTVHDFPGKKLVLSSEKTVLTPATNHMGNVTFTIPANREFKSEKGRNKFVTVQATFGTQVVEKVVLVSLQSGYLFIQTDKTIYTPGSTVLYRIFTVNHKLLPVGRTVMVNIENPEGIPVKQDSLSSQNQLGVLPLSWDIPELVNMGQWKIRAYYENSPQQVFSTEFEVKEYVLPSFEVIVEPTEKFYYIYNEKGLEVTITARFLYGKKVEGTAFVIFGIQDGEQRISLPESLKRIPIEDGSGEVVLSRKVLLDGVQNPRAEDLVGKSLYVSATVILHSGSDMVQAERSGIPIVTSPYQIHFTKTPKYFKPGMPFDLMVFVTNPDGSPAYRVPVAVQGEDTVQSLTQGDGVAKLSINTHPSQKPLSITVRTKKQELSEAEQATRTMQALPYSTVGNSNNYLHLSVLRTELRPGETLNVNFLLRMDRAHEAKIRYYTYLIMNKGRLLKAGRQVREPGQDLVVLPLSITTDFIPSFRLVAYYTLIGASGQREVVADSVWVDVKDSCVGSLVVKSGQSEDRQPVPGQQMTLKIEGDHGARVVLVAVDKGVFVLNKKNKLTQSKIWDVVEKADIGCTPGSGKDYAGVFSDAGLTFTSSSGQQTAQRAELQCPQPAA
# T1 sequence (P01024 749-1663, chain 2 of 2): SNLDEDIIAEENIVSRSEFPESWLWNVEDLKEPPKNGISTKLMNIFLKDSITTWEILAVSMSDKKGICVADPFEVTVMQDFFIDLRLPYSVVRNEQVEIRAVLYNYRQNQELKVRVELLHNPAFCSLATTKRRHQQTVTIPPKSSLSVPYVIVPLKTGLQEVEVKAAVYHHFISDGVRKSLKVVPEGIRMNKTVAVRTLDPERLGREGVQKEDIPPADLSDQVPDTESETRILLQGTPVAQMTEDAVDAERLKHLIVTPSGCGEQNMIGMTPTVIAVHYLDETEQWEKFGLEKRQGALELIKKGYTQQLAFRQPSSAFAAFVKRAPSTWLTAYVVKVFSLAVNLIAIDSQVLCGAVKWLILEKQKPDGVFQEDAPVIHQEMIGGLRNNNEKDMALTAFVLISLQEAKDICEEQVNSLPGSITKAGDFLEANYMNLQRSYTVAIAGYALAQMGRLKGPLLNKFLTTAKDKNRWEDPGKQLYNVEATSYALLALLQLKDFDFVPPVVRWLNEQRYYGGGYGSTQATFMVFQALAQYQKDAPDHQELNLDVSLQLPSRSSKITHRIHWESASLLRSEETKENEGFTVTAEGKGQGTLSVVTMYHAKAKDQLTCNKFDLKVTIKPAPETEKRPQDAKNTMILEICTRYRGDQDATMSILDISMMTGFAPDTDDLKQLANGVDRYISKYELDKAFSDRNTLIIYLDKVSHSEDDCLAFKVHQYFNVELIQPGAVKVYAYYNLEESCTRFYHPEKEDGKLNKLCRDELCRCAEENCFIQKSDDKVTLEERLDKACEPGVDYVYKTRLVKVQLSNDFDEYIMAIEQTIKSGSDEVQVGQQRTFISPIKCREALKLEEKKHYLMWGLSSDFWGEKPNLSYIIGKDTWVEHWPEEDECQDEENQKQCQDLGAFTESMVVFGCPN
binder,measurement,value
B1,Kd,1000 nM
